The values that follow come from the RNAGym collection of RNA variant scans (doi:10.7554/elife.80360).

First the molecules themselves.
B1: HDV Ribozyme (parent)
chain: GGCCGGCAUGGUCCCAGCCUCCUCGCUGGCGCCGGCUGGGCAACAUUCCGAGGGGACCGUCCCCUCGGUAAUGGCGAAUGGGACCCA

In the data set the parent is B1. The data set is described as follows: self-cleavage, relative activity (ratio to wild type); higher = more cleavage; co-transcriptional.
C49U A56U: the self-cleavage is 0.973.

For A8U A51C, the self-cleavage is 0.633. Consider G25U G35C, for which the self-cleavage came out at 0.0707. In the case of U27C C49U, the self-cleavage is 0.617. The value for G29U A45U was 0; that for A45C A83U was 0.356. For U9C C24A, the self-cleavage stood at 0.864.

For the variant U12C A71U, the self-cleavage is 0.453.

On to A45U U60G, for which the self-cleavage is 0.643.

Turning to C3A G53A, the self-cleavage was 0.519.

Turning to G40U U46G, the self-cleavage was determined as 0.136. Take G2A C44U: the self-cleavage was determined as 0.0554. A56G C61U: the self-cleavage came out at 1.08. G35U C61U: the self-cleavage came to 0.554. Regarding G2C A77U, the self-cleavage is 0.119. Take U12C G74U: the self-cleavage came out at 0.0692.

With G73A A78G, the self-cleavage stood at 0.203. In the case of G31U U65C, the self-cleavage was determined as 0.339. For C19U G52A, the self-cleavage worked out at 0.137. Turning to A16U G38U, the self-cleavage was 0.253.

Turning to C21A G67A, the self-cleavage is 0.0712. Take C44A G82C: the self-cleavage was found to be 0.0773. On to C44A C58U, for which the self-cleavage came to 0.689. G6U C75U: the self-cleavage came to 0.113. Regarding A71C A78C, the self-cleavage worked out at 0.219. For the variant G68A G73C, the self-cleavage was 0.257. With U65G C66A the figure was 0.9; with G29C G35C, 0.0405; with G29U G80U, 0.0885.

Consider A51C G54C, for which the self-cleavage came to 0.787. G1C G28C: the self-cleavage came out at 0.

In the case of U23C C30A, the self-cleavage came out at 0.369. In the case of G80U A87U, the self-cleavage is 0.235. On to U27C G39C, for which the self-cleavage stood at 0.166. Consider U12A U46A, for which the self-cleavage was 0.361. Regarding C19U C63A, the self-cleavage is 0.199.

For C19G U23C, the self-cleavage came to 0. On to U9A G59U, for which the self-cleavage came out at 1.41. As for G39U U65C, the self-cleavage stood at 0.752.

Turning to C3U A45U, the self-cleavage was 0.432. In the case of C4G U65C, the self-cleavage turned out to be 0.18.

Turning to G2U G50C, the self-cleavage was 0.0179.

In the case of G59U G76C, the self-cleavage was 1.08. The value for C4G A70U was 0.35; that for A16G C57U was 1.14.

As for U12C C13A, the self-cleavage worked out at 0.0665. The value for C63U A70C was 1.07; that for G5A U37A was 0; that for U20A G35A was 0.158. In the case of G29U G74U, the self-cleavage is 0.0963.

Regarding G2U G10U, the self-cleavage was determined as 0.038.

Take U23G A56U: the self-cleavage is 0.759. With G74U C84U the figure was 0.213; with G76A C84U, 1.05. On to C30A C44U, for which the self-cleavage amounted to 0.132. For the variant G17U A51C, the self-cleavage came out at 0.831. With G1U C32U the figure was 0.532. As to C4G G29A, the self-cleavage stood at 0. Take G34U C66A: the self-cleavage was 0.0712. Consider G55A C61G, for which the self-cleavage amounted to 1.06.

Take C24G U69A: the self-cleavage amounted to 0.204. With C18G C30U the figure was 0.0386; with A77G A87G, 0.966; with G55C G68C, 0.752. The value for C49G A87U was 0.913; that for G28U G35C was 0.13; that for G6C G38A was 0.0396. Take C21A A78C: the self-cleavage worked out at 0. For the variant G53U C66A, the self-cleavage stood at 0.937. A51U C85G: the self-cleavage came out at 0.831. Regarding A8C C26G, the self-cleavage was determined as 1.11. With G50A C61G the figure was 0.91; with A16U U79A, 1.09; with U23G C64G, 0.95. For C3U G35A, the self-cleavage came out at 0.694. In the case of A45G G50A, the self-cleavage turned out to be 0.707. Take C49G C84G: the self-cleavage worked out at 0.297. With U69G A77U, the self-cleavage is 0.375. The value for G6A C62A was 0.543; that for C58A U69C was 1.17. As to U20C C84A, the self-cleavage was 0.166.

With C36G C44A, the self-cleavage is 0.128.

Take A56G A77C: the self-cleavage worked out at 0.199.

Turning to G31A G67U, the self-cleavage came out at 0.439.

As for C24G A42U, the self-cleavage amounted to 0. For G59C G67U, the self-cleavage came to 1.09. The value for G35C C85A was 0.213; that for C58G C61U was 0.851.

Turning to U60A C85U, the self-cleavage was determined as 0.912. With U60A C85G, the self-cleavage amounted to 0.673. On to G11C C58G, for which the self-cleavage amounted to 0.369. Turning to C75U G80A, the self-cleavage was determined as 0.0573. Take G28C A45U: the self-cleavage came out at 0.142.

On to G55U G74C, for which the self-cleavage came to 0.208. C22U G55C: the self-cleavage came to 0.642. With C7A U27C, the self-cleavage was determined as 0.287. As to C22G U27A, the self-cleavage was 0.208.

For G59A C64G, the self-cleavage worked out at 0.831. For the variant U79C A83G, the self-cleavage was found to be 0.253. As for C7U A42U, the self-cleavage was 0.196. As to C7A C18A, the self-cleavage turned out to be 0.0852. On to G59A G82U, for which the self-cleavage was determined as 0.467. G6U C36A: the self-cleavage amounted to 0.133.

For U9A G52U, the self-cleavage was found to be 0.858.

For C19U A77G, the self-cleavage is 0.253. Regarding U12A G54C, the self-cleavage stood at 0.269. In the case of U69G U72C, the self-cleavage is 0.485. For the variant C3U C21G, the self-cleavage is 0.0723. With G52C G74U, the self-cleavage worked out at 0.312. In the case of G67A U79G, the self-cleavage came to 0.807.

Turning to G38A C44A, the self-cleavage was 0.0678.

Consider U65C C66U, for which the self-cleavage amounted to 1.04. C24G C85A: the self-cleavage was found to be 0.141. Regarding C26A G40A, the self-cleavage was found to be 1.01. As to C24A G54C, the self-cleavage stood at 0.741. For G6U C85A, the self-cleavage amounted to 0.394. Take C13U G80A: the self-cleavage is 0.31. Turning to A45G U47G, the self-cleavage stood at 0.767.

For U20C C66U, the self-cleavage amounted to 0.0831. Consider U9A C61A, for which the self-cleavage was 1.16. Turning to C26U C75U, the self-cleavage came to 0.113. G34A A56U: the self-cleavage turned out to be 0.256. For the variant G1A U20C, the self-cleavage amounted to 0. C32G U65A: the self-cleavage was 0.0545. Turning to C61U G74A, the self-cleavage came out at 0.463.

For A70U A71C, the self-cleavage was determined as 0.802. For the variant U47C C48U, the self-cleavage was found to be 0.597.

Consider A71C G82C, for which the self-cleavage turned out to be 0.268. Regarding U37A C57U, the self-cleavage worked out at 0.146. U69G C85U: the self-cleavage was 0.811. The value for C15U U47G was 0.89; that for G50U C63U was 0.909; that for C32G G80C was 0.

With U20A G80A, the self-cleavage came to 0.0712.

C15U G68U: the self-cleavage was 0.88. Regarding U47C A51G, the self-cleavage was found to be 0.969. With U46C U65A, the self-cleavage worked out at 0.853. Consider U23C G34C, for which the self-cleavage amounted to 0.172. The value for C4G G73A was 0.156; that for A83U C85U was 0.446; that for C32U G74C was 0.224. With C7A G81U the figure was 0.116; with U23G G68C, 0.482; with C48G C63G, 0.306.

As to G6C G54A, the self-cleavage came out at 0.415. On to C21G C63G, for which the self-cleavage turned out to be 0.0378.

As to G29C G31C, the self-cleavage was 0. On to C26A U72G, for which the self-cleavage turned out to be 0.657. As for C30G G55U, the self-cleavage was found to be 0.0225. On to G40A A56U, for which the self-cleavage was 1.02. The value for A16G C24G was 0.178; that for G29C G82U was 0.0959; that for U37G C49A was 0.0573.

Regarding U37G G40U, the self-cleavage came out at 0.203. Consider C30U C33A, for which the self-cleavage stood at 0.0268.

With C22A G53C, the self-cleavage stood at 0.157.

Turning to G35A U60G, the self-cleavage amounted to 0.554. Consider G54U C86G, for which the self-cleavage was found to be 1.01. Regarding C22A C24A, the self-cleavage was determined as 0.188. As for G5U G73A, the self-cleavage is 0.0665.

As for C22G G39U, the self-cleavage is 0.102. As for A77C C86U, the self-cleavage came to 0.519.

For the variant G6U C30U, the self-cleavage was 0.131. Take C44U C75G: the self-cleavage came out at 0.106. For the variant A8U C84A, the self-cleavage was 0.95. In the case of U20A G40U, the self-cleavage amounted to 0.0627. For C41A C61U, the self-cleavage is 0.76.
